Source: publication PMC2121028

Biological target: SNF1/GAL4(1-147)
Assay: two-hybrid
Settings: scale: units

Chain of SNF1/GAL4(1-147) (P06782 whole entry, the tested form may be a part): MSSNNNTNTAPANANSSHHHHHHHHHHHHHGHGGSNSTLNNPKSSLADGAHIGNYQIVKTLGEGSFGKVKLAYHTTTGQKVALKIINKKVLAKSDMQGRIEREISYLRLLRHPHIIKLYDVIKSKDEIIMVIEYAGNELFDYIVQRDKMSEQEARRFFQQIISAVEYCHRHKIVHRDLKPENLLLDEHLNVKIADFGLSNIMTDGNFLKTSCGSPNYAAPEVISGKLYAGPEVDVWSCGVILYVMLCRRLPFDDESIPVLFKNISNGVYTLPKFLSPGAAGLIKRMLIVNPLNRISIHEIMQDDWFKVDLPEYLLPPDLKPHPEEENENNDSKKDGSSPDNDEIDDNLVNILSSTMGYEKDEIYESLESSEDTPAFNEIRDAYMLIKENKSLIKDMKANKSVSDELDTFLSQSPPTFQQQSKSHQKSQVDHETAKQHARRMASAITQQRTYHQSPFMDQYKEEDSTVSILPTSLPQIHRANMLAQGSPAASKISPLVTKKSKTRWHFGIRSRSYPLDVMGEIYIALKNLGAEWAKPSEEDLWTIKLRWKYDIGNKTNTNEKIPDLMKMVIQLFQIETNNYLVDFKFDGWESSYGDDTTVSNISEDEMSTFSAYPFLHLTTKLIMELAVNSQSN
Chain of SNF4/GAL4(768-881) (natural protein) (P12904 whole entry, the tested form may be a part): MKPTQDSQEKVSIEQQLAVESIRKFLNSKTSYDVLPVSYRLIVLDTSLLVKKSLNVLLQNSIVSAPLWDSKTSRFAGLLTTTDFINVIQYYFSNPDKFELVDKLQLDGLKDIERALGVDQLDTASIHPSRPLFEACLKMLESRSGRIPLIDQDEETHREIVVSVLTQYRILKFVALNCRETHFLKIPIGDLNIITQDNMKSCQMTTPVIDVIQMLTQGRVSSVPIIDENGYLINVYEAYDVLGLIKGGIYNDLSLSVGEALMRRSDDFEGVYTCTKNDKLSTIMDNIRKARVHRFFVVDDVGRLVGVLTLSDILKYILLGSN

Work on SNF4/GAL4(768-881) (natural protein) yielded a beta-galactosidase activity of 500.
